Test results reported in patent US20090221680, “Aptamers that bind thrombin with high affinity” (published 2009).

Molecular target: thrombin (alpha-thrombin) (Homo sapiens, UniProt P00734;P00734 P00734:315-363,P00734:364-622)
Assay: filter

Binder | Kd [nM]
ACTGCCTAGGTTGGGTAGGGTGGTGGCAGT (ssDNA, PS between T12 and G13) [ARC2655] | 0.079
AUGATTAGGTTGGGTAGGGTGGTAUCAU (XNA, 2'-OMe 1-4,25-28, rest DNA) [ARC2836] | 0.96
GATTAGGTTGGGTAGGGTGGTATC (ssDNA) [ARC2847] | 0.21
ACTGCCTAGGTTGGGTAGGGTGGTGGCAGT (XNA, 2'-OMe C2, rest DNA) [ARC2614] | 0.052
ACTGCCTAGGTTGGGUAGGGTGGTGGCAGT (XNA, 2'-OMe U16, rest DNA) [ARC2628] | 0.207
ACTGCCTAGGTTGGGTAGGGTGGTGGCAGT (ssDNA, PS between G10 and T11) [ARC2653] | 0.066
UGATTAGGTTGGGTAGGGTGGTAUCA (XNA, 2'-OMe 1-3,24-26, rest DNA) [ARC2843] | 0.62
ACTGCCTAGGTTGGGTAGGGTGGTGGCAGT (XNA, 2'-OMe G23, rest DNA) [ARC2635] | 0.248
GATTAGGTTGGGTAGGGTGGTAUC (XNA, 2'-OMe 1-2,23-24, rest DNA) [ARC2850] | 0.33
ACTGCCTAGGTTGGGTAGGGTGGTGGCAGT (ssDNA, PS between G23 and T24) [ARC2666] | 0.992
UGAUTAGGTTGGGTAGGGTGGTAUCA (XNA, 2'-OMe 1-4,23-26, rest DNA) [ARC2842] | 1.06
ACTGCCTAGGTTGGGTAGGGTGGTGGCAGT (XNA, 2'-OMe A28, rest DNA) [ARC2640] | 0.174
GCTGCCTAGGTTGGGTAGGGTGGTGGCAGC (ssDNA) [ARC2170] | 0.19
ACTGCCTAGGTTGGGTAGGGTGGTGGCAGT (XNA, 2'-OMe G29, rest DNA) [ARC2641] | 0.171
ACTGCCTAGGTTGGGTAGGGTGGTGGCAGT (XNA, 2'-OMe G10, rest DNA) [ARC2622] | 0.038
UGCCTAGGTTGGGTAGGGTGGTGGCA (XNA, 2'-OMe 1-4,23,25,26, rest DNA) [ARC2838] | 0.77
GCCUAGGTTGGGTAGGGTGGUGGC (XNA, 2'-OMe 1-4,21,22,24, rest DNA) [ARC2844] | 2.65
ACTGCCTAGGTTGGGTAGGGTGGTGGCAGT (XNA, 2'-OMe G18, rest DNA) [ARC2630] | 5.24
TGATTAGGTTGGGTAGGGTGGTATCA (ssDNA) [ARC2840] | 0.25
ACTGCCTAGGTTGGGTAGGGTGGTGGCAGT (ssDNA, PS between T16 and A17) [ARC2659] | 0.452
ACUGCCUAGGTTGGGTAGGGTGGUGGCAGU (XNA, 2'-OMe 1-7,24,25,27-30, rest DNA) [ARC2823] | 9.1
ACTGCCTAGGTTGGGTAGGGTGGTGGCAGT (XNA, 2'-OMe G25, rest DNA) [ARC2637] | 0.118
ACTGCCTAGGTTGGGTAGGGTGGTGGCAGT (XNA, 2'-OMe G4, rest DNA) [ARC2616] | 0.091
ACTGCCTAGGTTGGGTAGGGTGGTGGCAGT (XNA, 2'-OMe G22, rest DNA) [ARC2634] | 0.549

Binder | Kd [nM]
CTGCCTAGGTTGGGTAGGGTGGTGGCAG (ssDNA) [ARC2171] | 0.221
ACTGCCTAGGTTGGGTAGGGTGGTGGCAGT (XNA, 2'-OMe G9, rest DNA) [ARC2621] | 1.52
CCTCAGGGATGGTGTGGGTGGCTGAGG (ssDNA) [ARC1985] | 5.7
ACTGCCTAGGTTGGGTAGGGTGGTGGCAGT (XNA, 2'-OMe G26, rest DNA) [ARC2638] | 0.192
ACTGCCTAGGTTGGGTAGGGTGGTGGCAGT (XNA, 2'-OMe C27, rest DNA) [ARC2639] | 0.08
UGCCUAGGTTGGGTAGGGTGGUGGCA (XNA, 2'-OMe 1-5,22,23,25,26, rest DNA) [ARC2837] | 2.61
ACTGCCTAGGTTGGGTAGGGTGGUGGCAGT (XNA, 2'-OMe U24, rest DNA) [ARC2636] | 0.102
ACTGCCTAGGTTGGGTAGGGTGGTGGCAGT (XNA, 2'-OMe A1, rest DNA) [ARC2613] | 0.173
ACTGCCUAGGTTGGGTAGGGTGGTGGCAGT (XNA, 2'-OMe U7, rest DNA) [ARC2619] | 0.215
UGAUUAGGTTGGGTAGGGTGGUAUCA (XNA, 2'-OMe 1-5,22-26, rest DNA) [ARC2841] | 3.55
GCCTAGGTTGGGTAGGGTGGTGGC (XNA, 2'-OMe 1-2,24, rest DNA) [ARC2846] | 0.27
ACTGCCTAGGTTGGGTAGGGTGGTGGCAGT (XNA, 2'-OMe C6, rest DNA) [ARC2618] | 0.121
GAUUAGGTTGGGTAGGGTGGUAUC (XNA, 2'-OMe 1-4,21-24, rest DNA) [ARC2848] | 2.09
ACTGCCTAGGTTGGGTAGGGTGGTGGCAGT (XNA, 2'-OMe G14, rest DNA) [ARC2626] | 1.59
GAUTAGGTTGGGTAGGGTGGTAUC (XNA, 2'-OMe 1-3,22-24, rest DNA) [ARC2849] | 0.2
UGCCTAGGTTGGGTAGGGTGGTGGCA (XNA, 2'-OMe 1-3,25,26, rest DNA) [ARC2839] | 0.58
GCCTAGGTTGGGTAGGGTGGTGGC (XNA, 2'-OMe 1-3,22,24, rest DNA) [ARC2845] | 0.86
ACTGCCTAGGTTGGGTAGGGTGGTGGCAGT (XNA, 2'-OMe G13, rest DNA) [ARC2625] | 0.568
ACTGCCTAGGTTGGGTAGGGTGGTGGCAGU (XNA, 2'-OMe U30, rest DNA) [ARC2642] | 0.094
ACTGCCTAGGTTGGGTAGGGTGGTGGCAGT (XNA, 2'-OMe G19, rest DNA) [ARC2631] | 4.96
ACTGCCTAGGTTGGGTAGGGTGGTGGCAGT (XNA, 2'-OMe A8, rest DNA) [ARC2620] | 7.1
ACTGCCTAGGUTGGGTAGGGTGGTGGCAGT (XNA, 2'-OMe U11, rest DNA) [ARC2623] | 0.746
ACUGCCTAGGTTGGGTAGGGTGGTGGCAGT (XNA, 2'-OMe U3, rest DNA) [ARC2615] | 0.094
